To fix the notation:
T1: LNX2_1, Q8N448
T1 sequence (Q8N448 228-328, limits assumed, looked up): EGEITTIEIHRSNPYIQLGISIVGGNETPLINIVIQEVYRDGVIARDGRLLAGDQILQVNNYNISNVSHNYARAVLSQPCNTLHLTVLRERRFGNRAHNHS

B1: HPV16-E6, P03126 (peptide)
chain: SSRTRRETQL
B2: GRASP, Q7Z6J2 (peptide)
chain: RSLEEEESQL
B3: HPV67-E6, A4U7F2 (peptide)
chain: SRPQRTQTQV

The target in one assay is LNX1_4, Q8TBB1. In words: holdup assay. The conditions noted are these: plain residues with an end cap or a label only (N-terminal biotin on a linker: ttds). Further details: key: below the threshold = too weak to quantify, mostly under pKd 3.1 to 4.
Chain of LNX1_4, Q8TBB1 (Q8TBB1 631-726): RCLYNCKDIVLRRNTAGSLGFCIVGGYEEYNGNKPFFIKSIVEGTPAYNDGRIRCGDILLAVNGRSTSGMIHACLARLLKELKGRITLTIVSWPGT
On to B1, for which the pKd result was “below the threshold”.

The target in another assay is T1, LNX2_1, Q8N448. The assay is described as follows: holdup assay. The conditions noted are these: plain residues with an end cap or a label only (N-terminal biotin on a linker: ttds). The arrangement: key: below the threshold = too weak to quantify, mostly under pKd 3.1 to 4.
Turning to B1, the pKd entry was “below the threshold”.

The target of another assay is NHERF4_3, Q86UT5. The assay is described as follows: holdup assay. Further details: key: below the threshold = too weak to quantify, mostly under pKd 3.1 to 4. The conditions noted are these: plain residues with an end cap or a label only (N-terminal biotin on a linker: ttds).
Chain of NHERF4_3, Q86UT5 (Q86UT5 325-412): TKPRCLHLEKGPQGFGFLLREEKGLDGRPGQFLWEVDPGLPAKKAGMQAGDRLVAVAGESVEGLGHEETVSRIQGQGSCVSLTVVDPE
In the case of B2, the pKd entry is “below the threshold”.
On the same count and under the same terms, the value for B3 was “below the threshold”.
Consider B1, for which the pKd is 4.13.

The target in the next assay is O00233. In words: holdup assay. Further details: key: below the threshold = too weak to quantify, mostly under pKd 3.1 to 4. The conditions noted are these: plain residues with an end cap or a label only (N-terminal biotin on a linker: ttds).
Take B2: the pKd result is “below the threshold”.

For a further assay, the target named is O00560. The assay is described as follows: holdup assay. The conditions noted are these: plain residues with an end cap or a label only (N-terminal biotin on a linker: ttds). The arrangement: key: below the threshold = too weak to quantify, mostly under pKd 3.1 to 4.
Take B2: the pKd entry is given as “below the threshold”.

The next assay concerns the target O15021. The assay is described as follows: holdup assay. The arrangement: key: below the threshold = too weak to quantify, mostly under pKd 3.1 to 4. The conditions noted are these: plain residues with an end cap or a label only (N-terminal biotin on a linker: ttds).
On to B2, for which the pKd entry was “below the threshold”.

Another assay has as its target O43166. In words: holdup assay. Further details: key: below the threshold = too weak to quantify, mostly under pKd 3.1 to 4. The conditions noted are these: plain residues with an end cap or a label only (N-terminal biotin on a linker: ttds).
As for B2, the pKd result is “below the threshold”.

For the next assay, the target named is O60759. The assay is described as follows: holdup assay. The arrangement: key: below the threshold = too weak to quantify, mostly under pKd 3.1 to 4. The conditions noted are these: plain residues with an end cap or a label only (N-terminal biotin on a linker: ttds).
As to B2, the pKd result was “below the threshold”.

The target of another assay is O75970. In words: holdup assay. Further details: key: below the threshold = too weak to quantify, mostly under pKd 3.1 to 4. The conditions noted are these: plain residues with an end cap or a label only (N-terminal biotin on a linker: ttds).
B2: the pKd result is listed as “below the threshold”.

The target of another assay is Q12923. In words: holdup assay. The conditions noted are these: plain residues with an end cap or a label only (N-terminal biotin on a linker: ttds). The arrangement: key: below the threshold = too weak to quantify, mostly under pKd 3.1 to 4.
Regarding B2, the negative logarithm of the Kd (pKd) result was “below the threshold”.

In a further assay the target is Q13009. The assay is described as follows: holdup assay. Further details: key: below the threshold = too weak to quantify, mostly under pKd 3.1 to 4. The conditions noted are these: plain residues with an end cap or a label only (N-terminal biotin on a linker: ttds).
Regarding B2, the pKd entry was “below the threshold”.

In another assay the target is Q5TCQ9. The assay is described as follows: holdup assay. The conditions noted are these: plain residues with an end cap or a label only (N-terminal biotin on a linker: ttds). The arrangement: key: below the threshold = too weak to quantify, mostly under pKd 3.1 to 4.
For the molecule B2, the pKd result is “below the threshold”.

The next assay concerns the target Q6ZWJ1. The assay is described as follows: holdup assay. Further details: key: below the threshold = too weak to quantify, mostly under pKd 3.1 to 4. The conditions noted are these: plain residues with an end cap or a label only (N-terminal biotin on a linker: ttds).
For B2, the pKd result was “below the threshold”.

In another assay the target is Q70Z35. In words: holdup assay. The conditions noted are these: plain residues with an end cap or a label only (N-terminal biotin on a linker: ttds). The arrangement: key: below the threshold = too weak to quantify, mostly under pKd 3.1 to 4.
Turning to B2, the negative logarithm of the Kd (pKd) result was “below the threshold”.

The target in another assay is Q8TEW0. The assay is described as follows: holdup assay. Further details: key: below the threshold = too weak to quantify, mostly under pKd 3.1 to 4. The conditions noted are these: plain residues with an end cap or a label only (N-terminal biotin on a linker: ttds).
As for B2, the pKd result is given as “below the threshold”.

In another assay the target is Q92614. The assay is described as follows: holdup assay. Further details: key: below the threshold = too weak to quantify, mostly under pKd 3.1 to 4. The conditions noted are these: plain residues with an end cap or a label only (N-terminal biotin on a linker: ttds).
Consider B2, for which the pKd result is on record as “below the threshold”.

Another assay deals with Q96FS4. The assay is described as follows: holdup assay. Further details: key: below the threshold = too weak to quantify, mostly under pKd 3.1 to 4. The conditions noted are these: plain residues with an end cap or a label only (N-terminal biotin on a linker: ttds).
Take B2: the pKd entry was “below the threshold”.

The target in another assay is Q96HC4. In words: holdup assay. Further details: key: below the threshold = too weak to quantify, mostly under pKd 3.1 to 4. The conditions noted are these: plain residues with an end cap or a label only (N-terminal biotin on a linker: ttds).
For the molecule B2, the pKd result is given as “below the threshold”.

A further assay addresses Q96JB8. In words: holdup assay. The arrangement: key: below the threshold = too weak to quantify, mostly under pKd 3.1 to 4. The conditions noted are these: plain residues with an end cap or a label only (N-terminal biotin on a linker: ttds).
As to B2, the pKd result was “below the threshold”.

Another assay addresses Q96JY6. The assay is described as follows: holdup assay. Further details: key: below the threshold = too weak to quantify, mostly under pKd 3.1 to 4. The conditions noted are these: plain residues with an end cap or a label only (N-terminal biotin on a linker: ttds).
B2: the pKd result is on record as “below the threshold”.

The next assay deals with Q96SB3. In words: holdup assay. The conditions noted are these: plain residues with an end cap or a label only (N-terminal biotin on a linker: ttds). The arrangement: key: below the threshold = too weak to quantify, mostly under pKd 3.1 to 4.
As for B2, the pKd entry was “below the threshold”.

For the next assay, the target named is Q9C0E4. In words: holdup assay. Further details: key: below the threshold = too weak to quantify, mostly under pKd 3.1 to 4. The conditions noted are these: plain residues with an end cap or a label only (N-terminal biotin on a linker: ttds).
Regarding B2, the pKd entry is given as “below the threshold”.

The target of the next assay is Q9H190. In words: holdup assay. Further details: key: below the threshold = too weak to quantify, mostly under pKd 3.1 to 4. The conditions noted are these: plain residues with an end cap or a label only (N-terminal biotin on a linker: ttds).
On to B2, for which the pKd result was “below the threshold”.

Another assay concerns the target Q9UDY2. In words: holdup assay. The conditions noted are these: plain residues with an end cap or a label only (N-terminal biotin on a linker: ttds). Further details: key: below the threshold = too weak to quantify, mostly under pKd 3.1 to 4.
On to B2, for which the pKd result is listed as “below the threshold”.

The target of a further assay is Q9ULJ8. In words: holdup assay. Further details: key: below the threshold = too weak to quantify, mostly under pKd 3.1 to 4. The conditions noted are these: plain residues with an end cap or a label only (N-terminal biotin on a linker: ttds).
In the case of B2, the pKd result is “below the threshold”.

A further assay addresses Q9UMS6. In words: holdup assay. The arrangement: key: below the threshold = too weak to quantify, mostly under pKd 3.1 to 4. The conditions noted are these: plain residues with an end cap or a label only (N-terminal biotin on a linker: ttds).
With B2, the pKd result is recorded as “below the threshold”.

For a further assay, the target named is Q9Y3R0. The assay is described as follows: holdup assay. The arrangement: key: below the threshold = too weak to quantify, mostly under pKd 3.1 to 4. The conditions noted are these: plain residues with an end cap or a label only (N-terminal biotin on a linker: ttds).
Take B2: the pKd result is “below the threshold”.

The term pKd denotes −log10 of the Kd, conventionally taken in molar units.

For the origin of these results see paper PMC9482650, “Quantitative fragmentomics allow affinity mapping of interactomes” (Nature Communications, 2022).
